This note sets out measurements from doi:10.1101/2023.12.22.573140.

What all share (assay): ITC
(ITC needs no label: the signal is the heat of the interaction.)

Experiment [1] concerns the target TGF-β type II receptor (TβRII) (UniProt P37173).
Experiment [2] deals with TGF-β mimic 6 (TGM6), full-length (Heligmosomoides polygyrus).
Experiment [3] has as its target TGM6 domain 3 (TGM6-D3) (Heligmosomoides polygyrus).

Broadly, the Kd is the equilibrium constant for the complex coming apart. Higher therefore signals weaker binding.

The substance TGM6-D3 R82S (domain or fragment) registered a fold loss of binding affinity against wild type in experiment [1] of 7.4 fold. The substance TGM6-D3 R82A (domain or fragment) yielded a fold decrease in binding affinity against wild type in experiment [1] of 11 to 12 fold.

TGM6-D3 Y93A (domain or fragment) gave a fold decrease in binding affinity against wild type in experiment [1] of 108 fold. Regarding TGM6-D3 R95A (domain or fragment), the fold decrease in binding affinity against wild type in experiment [1] came to 11.6 fold.

With “TGF-β type II receptor (TβRII) (from UniProt P37173 46-155)”, the results for the Kd in experiment [2] and in experiment [3] were 220 nM and 440 nM, respectively. Turning to TGM6-D3 I78A (domain or fragment), in experiment [1], the fold decrease in binding affinity against wild type worked out at 15.4 fold.

As to TGM6-D3 Y80A (domain or fragment), in experiment [1], the fold decrease in binding affinity against wild type was 134 fold. The substance TGM1-D3 S242R (domain or fragment) registered a fold gain of binding affinity against wild type in experiment [1] of 4 fold. Regarding TGM6-D3 Y80F (domain or fragment), the fold decrease in binding affinity against wild type in experiment [1] is 3.5 fold. The same measure, in the same setting: to TGM6-D3 R38A (domain or fragment) belongs 22 fold.
